Laboratory results from patent publication US20250327097A1, “ORGANISMS PRODUCING LESS CROTONIC ACID” (Global Bioenergies, priority 2021, published 2025).

B1: V272I-I283T-P284D-i284aP-N287P-S322T-N388M-E421V-C430N-L432F-L434W-S436N-C437F-Y438L-H461T-G462R-i462aA-A463T (protein)
chain: MFLKSLREQINLLKRQGDLRIINRPVDSYLEAAAIIRRSTETKAPVPLMTNIKGYPGCSIVGGLAALSSNPEYPLSRVAMSLGLSTTASAQSIVQYLIDGLKKTPYLPVEIDSNSAPCKQNILRGEDASLAHFPIPQVHQHDGNRYVNTWGVFIVESPDGQWCNWSIQRVQYLNDRQMIALVFPSQHISDIWEEWVKIGKPMPYALVQGCEPIVPYIAGLPLLERNVNEAEYIGALYGKGIEVVKCETHDLRVPASSEVVIEGYFAITREGIEGPFGEFAGYTDNEPSLQPILSITAISWQDDPIWPVVAEGKPVDEYHTCTGIGDAAAIQNVLLTANLPVSFVWVPLYSACHLMIVSINRHWRQTHPDLTSEQLTKKVGDVIHQTRMSIKLPKIVVLDDDVDPADTESLLWALATRIHPVRKRYFYESNIFPWLNFLSEEERHNRKGKRVIIDALLPENTRTISSFDYAYPDDIKQRVLMHWETDFSHD
B2: G17S-V272R-I283T-P284D-i284aP-N287P-S322T-N388M-E421K-C430N-L432F-L434W-S436N-G448E-H461T-G462R-i462aA-A463T (protein)
chain: MFLKSLREQINLLKRQSDLRIINRPVDSYLEAAAIIRRSTETKAPVPLMTNIKGYPGCSIVGGLAALSSNPEYPLSRVAMSLGLSTTASAQSIVQYLIDGLKKTPYLPVEIDSNSAPCKQNILRGEDASLAHFPIPQVHQHDGNRYVNTWGVFIVESPDGQWCNWSIQRVQYLNDRQMIALVFPSQHISDIWEEWVKIGKPMPYALVQGCEPIVPYIAGLPLLERNVNEAEYIGALYGKGIEVVKCETHDLRVPASSEVVIEGYFAITREGREGPFGEFAGYTDNEPSLQPILSITAISWQDDPIWPVVAEGKPVDEYHTCTGIGDAAAIQNVLLTANLPVSFVWVPLYSACHLMIVSINRHWRQTHPDLTSEQLTKKVGDVIHQTRMSIKLPKIVVLDDDVDPADTESLLWALATRIHPKRKRYFYESNIFPWLNCYSEEERHNRKEKRVIIDALLPENTRTISSFDYAYPDDIKQRVLMHWETDFSHD
B3: V272R-I283T-P284D-i284aP-N287P-S322T-N388M-E421V-C430N-L432F-L434W-S436N-E441H-G448E-H461T-G462R-i462aA-A463T (protein)
chain: MFLKSLREQINLLKRQGDLRIINRPVDSYLEAAAIIRRSTETKAPVPLMTNIKGYPGCSIVGGLAALSSNPEYPLSRVAMSLGLSTTASAQSIVQYLIDGLKKTPYLPVEIDSNSAPCKQNILRGEDASLAHFPIPQVHQHDGNRYVNTWGVFIVESPDGQWCNWSIQRVQYLNDRQMIALVFPSQHISDIWEEWVKIGKPMPYALVQGCEPIVPYIAGLPLLERNVNEAEYIGALYGKGIEVVKCETHDLRVPASSEVVIEGYFAITREGREGPFGEFAGYTDNEPSLQPILSITAISWQDDPIWPVVAEGKPVDEYHTCTGIGDAAAIQNVLLTANLPVSFVWVPLYSACHLMIVSINRHWRQTHPDLTSEQLTKKVGDVIHQTRMSIKLPKIVVLDDDVDPADTESLLWALATRIHPVRKRYFYESNIFPWLNCYSEHERHNRKEKRVIIDALLPENTRTISSFDYAYPDDIKQRVLMHWETDFSHD
B4: V272R-I283T-P284D-i284aP-N287P-S322T-N388M-I418V-E421V-C430N-L432F-L434W-S436N-G448E-H461T-G462R-i462aA-A463T (protein)
chain: MFLKSLREQINLLKRQGDLRIINRPVDSYLEAAAIIRRSTETKAPVPLMTNIKGYPGCSIVGGLAALSSNPEYPLSRVAMSLGLSTTASAQSIVQYLIDGLKKTPYLPVEIDSNSAPCKQNILRGEDASLAHFPIPQVHQHDGNRYVNTWGVFIVESPDGQWCNWSIQRVQYLNDRQMIALVFPSQHISDIWEEWVKIGKPMPYALVQGCEPIVPYIAGLPLLERNVNEAEYIGALYGKGIEVVKCETHDLRVPASSEVVIEGYFAITREGREGPFGEFAGYTDNEPSLQPILSITAISWQDDPIWPVVAEGKPVDEYHTCTGIGDAAAIQNVLLTANLPVSFVWVPLYSACHLMIVSINRHWRQTHPDLTSEQLTKKVGDVIHQTRMSIKLPKIVVLDDDVDPADTESLLWALATRVHPVRKRYFYESNIFPWLNCYSEEERHNRKEKRVIIDALLPENTRTISSFDYAYPDDIKQRVLMHWETDFSHD
B5: S39G-V272R-I283T-P284D-i284aP-N287P-S322T-N388M-E421V-F426L-E428T-C430N-L432F-L434W-S436N-G448E-H461T-G462R-i462aA-A463T (protein)
chain: MFLKSLREQINLLKRQGDLRIINRPVDSYLEAAAIIRRGTETKAPVPLMTNIKGYPGCSIVGGLAALSSNPEYPLSRVAMSLGLSTTASAQSIVQYLIDGLKKTPYLPVEIDSNSAPCKQNILRGEDASLAHFPIPQVHQHDGNRYVNTWGVFIVESPDGQWCNWSIQRVQYLNDRQMIALVFPSQHISDIWEEWVKIGKPMPYALVQGCEPIVPYIAGLPLLERNVNEAEYIGALYGKGIEVVKCETHDLRVPASSEVVIEGYFAITREGREGPFGEFAGYTDNEPSLQPILSITAISWQDDPIWPVVAEGKPVDEYHTCTGIGDAAAIQNVLLTANLPVSFVWVPLYSACHLMIVSINRHWRQTHPDLTSEQLTKKVGDVIHQTRMSIKLPKIVVLDDDVDPADTESLLWALATRIHPVRKRYLYTSNIFPWLNCYSEEERHNRKEKRVIIDALLPENTRTISSFDYAYPDDIKQRVLMHWETDFSHD
B6: V272R-I283T-P284D-i284aP-N287P-S322T-N388M-E421V-E428T-C430N-L432F-L434W-S436N-K447I-G448E-H461T-G462R-i462aA-A463T (protein)
chain: MFLKSLREQINLLKRQGDLRIINRPVDSYLEAAAIIRRSTETKAPVPLMTNIKGYPGCSIVGGLAALSSNPEYPLSRVAMSLGLSTTASAQSIVQYLIDGLKKTPYLPVEIDSNSAPCKQNILRGEDASLAHFPIPQVHQHDGNRYVNTWGVFIVESPDGQWCNWSIQRVQYLNDRQMIALVFPSQHISDIWEEWVKIGKPMPYALVQGCEPIVPYIAGLPLLERNVNEAEYIGALYGKGIEVVKCETHDLRVPASSEVVIEGYFAITREGREGPFGEFAGYTDNEPSLQPILSITAISWQDDPIWPVVAEGKPVDEYHTCTGIGDAAAIQNVLLTANLPVSFVWVPLYSACHLMIVSINRHWRQTHPDLTSEQLTKKVGDVIHQTRMSIKLPKIVVLDDDVDPADTESLLWALATRIHPVRKRYFYTSNIFPWLNCYSEEERHNRIEKRVIIDALLPENTRTISSFDYAYPDDIKQRVLMHWETDFSHD
B7: V272R-I283T-P284D-i284aP-N287P-S322T-N388M-E421V-E428T-C430N-L432F-L434W-S436N-G448E-H461T-G462R-i462aA-A463T (protein)
chain: MFLKSLREQINLLKRQGDLRIINRPVDSYLEAAAIIRRSTETKAPVPLMTNIKGYPGCSIVGGLAALSSNPEYPLSRVAMSLGLSTTASAQSIVQYLIDGLKKTPYLPVEIDSNSAPCKQNILRGEDASLAHFPIPQVHQHDGNRYVNTWGVFIVESPDGQWCNWSIQRVQYLNDRQMIALVFPSQHISDIWEEWVKIGKPMPYALVQGCEPIVPYIAGLPLLERNVNEAEYIGALYGKGIEVVKCETHDLRVPASSEVVIEGYFAITREGREGPFGEFAGYTDNEPSLQPILSITAISWQDDPIWPVVAEGKPVDEYHTCTGIGDAAAIQNVLLTANLPVSFVWVPLYSACHLMIVSINRHWRQTHPDLTSEQLTKKVGDVIHQTRMSIKLPKIVVLDDDVDPADTESLLWALATRIHPVRKRYFYTSNIFPWLNCYSEEERHNRKEKRVIIDALLPENTRTISSFDYAYPDDIKQRVLMHWETDFSHD

tested on: 3-methylcrotonic acid; type: biochemical, Yersinia frederiksenii; set-up: key: “+” representing a low increase in activity; “++++” representing a high increase in activity

Which “Activity relative to WT” value does the source give for B1 here?
Its value is “++++”.

B2 was tested. Which “Activity relative to WT” value did it give?
Its value is “++++”.

How did the “Activity relative to WT” value turn out when B3 was run?
The value was “++++”.

How did the “Activity relative to WT” value turn out when B4 was run?
Its value is “++++”.

B5 was tested. Which “Activity relative to WT” value did it give?
The value was “++++”.

Which “Activity relative to WT” value does the source give for B6 here?
The value was “++++”.

B7 was tested. Which “Activity relative to WT” value did it give?
Its value is “++++”.
